Results published in patent US20230052369A1 (Zymeworks, published 2023).
Positions count from the first letter of the chain named. Blank lines part the entries; values can stand above or below the binder they belong to.

Columns and labels:
[1] = biological target: T1, purified human monomeric 4-1BB (human, UniProt Q07011 24-186); assay: SPR, Ab captured, monomeric 4-1BB injected
T1 construct: the assay used the 4-1BB part released by Factor Xa with the Fc removed; also called h4-1BB; human 4-1BB
Procedure: The anti-human Fc surface was prepared on a CMS Series S sensorchip by standard amine coupling methods as described by the manufacturer (GE Healthcare). Briefly, immediately after EDC/NHS activation, a 25 μg/mL solution of anti-human Fc in 10 mM NaOAc pH 4.5 was injected at a flow rate of 10 μL/min for 420 s until approximately 2000 resonance units (RUs) were immobilized on all four flow cells. The remaining active groups were quenched by a 420 s injection of 1M ethanolamine at 10 μL/min.
Antibodies for analysis were captured onto the anti-Fc surface by injecting 5 μg/mL solutions at a flow rate of 10 μL/min for 60 s. Using single-cycle kinetics, five concentrations of a two-fold dilution series of 4-1BB starting at 40 nM (for both supernatant and purified antibody runs) with a blank buffer control were sequentially injected at 40 μL/min for 180 s with a 600 s dissociation phase, resulting in a set of sensorgrams with a buffer blank reference. Experiments were performed at a constant temperature of 25° C. The anti-human Fc surfaces were regenerated to prepare for the next injection cycle by one pulse of 10 mM Glycine/HCl pH 1.5 for 120 s at 40 μL/min. Blank-subtracted sensorgrams were analyzed using Biacore™ T200 Evaluation Software v3.0. The blank-subtracted sensorgrams were then fit to the 1:1 Langmuir binding model.
Variants purified by SEC were assessed for binding to human 4-1BB.

[2] = biological target: T2, full-length human FRα, on 293E cells (human, UniProt P15328 25-234); assay: flow cytometry, 293E cells expressing FRα
T2 construct: also called folate receptor alpha; FOLR1
T2 sequence (P15328 25-234 limits assumed): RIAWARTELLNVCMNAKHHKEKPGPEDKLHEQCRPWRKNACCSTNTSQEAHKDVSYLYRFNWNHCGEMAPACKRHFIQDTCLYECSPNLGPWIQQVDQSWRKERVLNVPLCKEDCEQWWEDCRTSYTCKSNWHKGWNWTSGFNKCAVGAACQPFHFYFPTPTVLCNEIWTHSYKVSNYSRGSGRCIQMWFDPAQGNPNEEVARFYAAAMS
Procedure: Antibodies were diluted in 50 μl FB (PBS 2% FCS) 1:3 from stock in wells of a 96 V-well plate, and cells added on top. The cells were then left on ice for 30 minutes for the antibodies to bind. The cells were then washed twice in FB, and incubated in 50 μl FB containing 2 μg/ml goat anti-human Alexa647 antibody (Jackson Immunoresearch). The cells were then left on ice for a further 20 minutes, washed twice in FB, resuspended in 100 μl FB and analyzed on a BD Fortessa™ X20. The subsequent data files were analyzed using FlowJo™ and Prism 7 (GraphPad).

T1 sequence (Q07011 other isoform, or with tags, fused parts or gaps limits assumed): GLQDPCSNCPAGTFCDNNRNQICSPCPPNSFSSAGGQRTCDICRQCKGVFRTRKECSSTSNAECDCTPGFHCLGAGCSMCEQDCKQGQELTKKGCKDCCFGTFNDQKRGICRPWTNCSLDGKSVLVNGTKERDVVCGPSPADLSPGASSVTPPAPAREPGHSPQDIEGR

B1: v23659 (bispecific antibody, human IgG1, kappa, L234A L235A)
heavy 1: QVQLQESGPGLVQPTQSLSITCTVSGFSLISYGVHWVRQSPGKGLEWLGVIWSGGSTDYNAAFISRLSISKDNSKSQVFFKMNSLQADDTAIYYCARNPLTATVMDYWGQGTSVTVSSASTKGPSVFPLAPSSKSTSGGTAALGCLVKDYFPEPVTVSWNSGALTSGVHTFPAVLQSSGLYSLSSVVTVPSSSLGTQTYICNVNHKPSNTKVDKKVEPKSCDKTHTCPPCPAPEAAGGPSVFLFPPKPKDTLMISRTPEVTCVVVSVSHEDPEVKFNWYVDGVEVHNAKTKPREEQYNSTYRVVSVLTVLHQDWLNGKEYKCKVSNKALPAPIEKTISKAKGQPREPQVYVYPPSRDELTKNQVSLTCLVKGFYPSDIAVEWESNGQPENNYKTTPPVLDSDGSFALVSKLTVDKSRWQQGNVFSCSVMHEALHNHYTQKSLSLSPGGGGGDIVMTQTPASVEAAVGGTVTIKCQASQSIYSSLAWYQQKPGQSPKLLIYDASHLASGVPSRFSGSRYGTEFTLTISGVQCDDAATYYCQGGWYSSAATYVPNTFGGGTEVVVKGGGGSGGGGSGGGGSQEQLVESGGGLVQPEGSLTLTCKASGFTISNNYYMCWVRQAPGKGLEWIACIYGGISGRTYYASWAKGRFTISKTSSTTVTLQMTSLTAADTATYFCVRGYVGTSNLWGPGTLVTVSS
heavy 2: QVQLQESGPGLVQPTQSLSITCTVSGFSLISYGVHWVRQSPGKGLEWLGVIWSGGSTDYNAAFISRLSISKDNSKSQVFFKMNSLQADDTAIYYCARNPLTATVMDYWGQGTSVTVSSASTKGPSVFPLAPSSKSTSGGTAALGCLVKDYFPEPVTVSWNSGALTSGVHTFPAVLQSSGLYSLSSVVTVPSSSLGTQTYICNVNHKPSNTKVDKKVEPKSCDKTHTCPPCPAPEAAGGPSVFLFPPKPKDTLMISRTPEVTCVVVSVSHEDPEVKFNWYVDGVEVHNAKTKPREEQYNSTYRVVSVLTVLHQDWLNGKEYKCKVSNKALPAPIEKTISKAKGQPREPQVYVLPPSRDELTKNQVSLLCLVKGFYPSDIAVEWESNGQPENNYLTWPPVLDSDGSFFLYSKLTVDKSRWQQGNVFSCSVMHEALHNHYTQKSLSLSPG
light: DIVMTQSQKFMSTSVGDRVSVTCKASQNVGTNVAWYQQKPGQSPKALIYSASYRDSGVPDRFTGSGSGTDFTLTISNVQSEDLAEYLCQQYNSYPLTFGAGTKLELKRTVAAPSVFIFPPSDEQLKSGTASVVCLLNNFYPREAKVQWKVDNALQSGNSQESVTEQDSKDSTYSLSSTLTLSKADYEKHKVYACEVTHQGLSSPVTKSFNRGEC
notes: also called 5G8 x 8K22 (VLVH) 2x1
Kd [1]: 208 nM
binding result [2]: binds

B2: v23664 (bispecific antibody, human IgG1, kappa, L234A L235A)
heavy 1: QVQLQESGPGLVQPTQSLSITCTVSGFSLISYGVHWVRQSPGKGLEWLGVIWSGGSTDYNAAFISRLSISKDNSKSQVFFKMNSLQADDTAIYYCARNPLTATVMDYWGQGTSVTVSSASTKGPSVFPLAPSSKSTSGGTAALGCLVKDYFPEPVTVSWNSGALTSGVHTFPAVLQSSGLYSLSSVVTVPSSSLGTQTYICNVNHKPSNTKVDKKVEPKSCDKTHTCPPCPAPEAAGGPSVFLFPPKPKDTLMISRTPEVTCVVVSVSHEDPEVKFNWYVDGVEVHNAKTKPREEQYNSTYRVVSVLTVLHQDWLNGKEYKCKVSNKALPAPIEKTISKAKGQPREPQVYVYPPSRDELTKNQVSLTCLVKGFYPSDIAVEWESNGQPENNYKTTPPVLDSDGSFALVSKLTVDKSRWQQGNVFSCSVMHEALHNHYTQKSLSLSPGGGGGDIVMTQTPSSVSAAVGGTVTIKCQASQTIGSSLAWYQQKPGQPPKLLIYRASTLASGVSSRFRGSGSGTEYTLTISDLECADAATYYCQWTDYGYIYIWAFGGGTEVVVKGGGGSGGGGSGGGGSQEQLVESGGGLVQPEGSLTLTCTASKFSFSSLYYMCWVRQAPGKGLEWIACVYGGSSGNTYYASWAKGRFTISKASSTTVTLQLTSLTAADTATYFCARFDVDGSGFNLWGPGTLVTVSS
heavy 2: B1 heavy 2
light: B1 light
notes: also called 5G8 x 1H06 (VLVH) 2x1
Kd [1]: 220 nM
binding result [2]: binds

B3: v23665 (bispecific antibody, human IgG1, kappa, L234A L235A)
heavy 1: QVQLKESGPGLVAPSQSLSITCTVSGFSLTSYAISWVRQPPGKGLEWLGVIWPGGGTNYNSALKSRLSISKDNSKSQVFLKMNSLQTDDTARYYCARGTGTWYFDVWGAGTTVTVSSASTKGPSVFPLAPSSKSTSGGTAALGCLVKDYFPEPVTVSWNSGALTSGVHTFPAVLQSSGLYSLSSVVTVPSSSLGTQTYICNVNHKPSNTKVDKKVEPKSCDKTHTCPPCPAPEAAGGPSVFLFPPKPKDTLMISRTPEVTCVVVSVSHEDPEVKFNWYVDGVEVHNAKTKPREEQYNSTYRVVSVLTVLHQDWLNGKEYKCKVSNKALPAPIEKTISKAKGQPREPQVYVYPPSRDELTKNQVSLTCLVKGFYPSDIAVEWESNGQPENNYKTTPPVLDSDGSFALVSKLTVDKSRWQQGNVFSCSVMHEALHNHYTQKSLSLSPGGGGGDIVMTQTPSSVSAAVGGTVTIKCQASQTIGSSLAWYQQKPGQPPKLLIYRASTLASGVSSRFRGSGSGTEYTLTISDLECADAATYYCQWTDYGYIYIWAFGGGTEVVVKGGGGSGGGGSGGGGSQEQLVESGGGLVQPEGSLTLTCTASKFSFSSLYYMCWVRQAPGKGLEWIACVYGGSSGNTYYASWAKGRFTISKASSTTVTLQLTSLTAADTATYFCARFDVDGSGFNLWGPGTLVTVSS
heavy 2: QVQLKESGPGLVAPSQSLSITCTVSGFSLTSYAISWVRQPPGKGLEWLGVIWPGGGTNYNSALKSRLSISKDNSKSQVFLKMNSLQTDDTARYYCARGTGTWYFDVWGAGTTVTVSSASTKGPSVFPLAPSSKSTSGGTAALGCLVKDYFPEPVTVSWNSGALTSGVHTFPAVLQSSGLYSLSSVVTVPSSSLGTQTYICNVNHKPSNTKVDKKVEPKSCDKTHTCPPCPAPEAAGGPSVFLFPPKPKDTLMISRTPEVTCVVVSVSHEDPEVKFNWYVDGVEVHNAKTKPREEQYNSTYRVVSVLTVLHQDWLNGKEYKCKVSNKALPAPIEKTISKAKGQPREPQVYVLPPSRDELTKNQVSLLCLVKGFYPSDIAVEWESNGQPENNYLTWPPVLDSDGSFFLYSKLTVDKSRWQQGNVFSCSVMHEALHNHYTQKSLSLSPG
light: DIQMTQTTSSLSASLGDRVTISCSASQGISNYLNWYQQKPDGTVKLLIYYTSSLHSGVPSRFSGSGSGTDYSLTISNLEPEDIATYYCQQYSDLPWTFGGGTKLEIKRTVAAPSVFIFPPSDEQLKSGTASVVCLLNNFYPREAKVQWKVDNALQSGNSQESVTEQDSKDSTYSLSSTLTLSKADYEKHKVYACEVTHQGLSSPVTKSFNRGEC
notes: also called 6B3 x 1H06 (VLVH) 2x1
Kd [1]: 464 nM
binding result [2]: binds

More lines, in order of falling Kd [1], values ahead:

Kd [1]: 535 nM
binding result [2]: binds
B5: v23661 (bispecific antibody, human IgG1, kappa, L234A L235A)
heavy 1: B3 heavy 1 with S31T, V50I, K75R, T99A
heavy 2: B3 heavy 2 with S31T, V50I, K75R, T99A
light: B3 light with T7S, L15V, D93K, L94F
notes: also called 1C8 x 1H06 (VLVH) 2x1

Kd [1]: 502 nM
binding result [2]: binds
B4: v23663 (bispecific antibody, human IgG1, kappa, L234A L235A)
heavy 1: B3 heavy 1 with S35N, I51L, T99S
heavy 2: B3 heavy 2 with S35N, I51L, T99S
light: B3 light with I21F, S56L, D93K
notes: also called 4E6 x 1H06 (VLVH) 2x1
